Key:
Experiment in all cases: ITC; ligand (peptide or CAR-1 fragment, 0.5 mM) injected into CGH-1_(248-420) or mutant (0.05 mM) in the cell; 20 °C; Buffer B (20 mM Tris-HCl pH 7.5, 150 mM NaCl); one-binding-site model
Conditions in all cases: both partners purified
CGH-1_(248–420) V262A = biological target: T1, CGH-1_(248–420) V262A (C. elegans, UniProt Q95YF3 248-420, V262A)
T1 construct: Mutant of m1 made with the MutanBEST kit; source: E. coli Gold (DE3), purified (Ni-chelating resin, SEC Superdex 75)
T1 sequence (looked up): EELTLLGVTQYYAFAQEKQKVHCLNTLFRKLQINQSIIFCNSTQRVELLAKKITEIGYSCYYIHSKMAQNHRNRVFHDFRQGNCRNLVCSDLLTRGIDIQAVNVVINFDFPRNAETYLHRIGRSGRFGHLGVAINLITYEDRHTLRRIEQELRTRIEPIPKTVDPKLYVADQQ

CGH-1_(248–420) Y386A = biological target: T2, CGH-1_(248–420) Y386A (C. elegans, UniProt Q95YF3 248-420, Y386A)
T2 construct: Mutant of m1 made with the MutanBEST kit; source: E. coli Gold (DE3), purified (Ni-chelating resin, SEC Superdex 75)
T2 sequence (looked up): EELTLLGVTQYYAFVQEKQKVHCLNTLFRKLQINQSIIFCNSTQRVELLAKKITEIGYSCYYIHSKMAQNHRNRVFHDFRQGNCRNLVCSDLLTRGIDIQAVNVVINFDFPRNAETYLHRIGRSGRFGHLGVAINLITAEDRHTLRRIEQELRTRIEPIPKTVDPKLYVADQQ

CGH-1_(248–420) F261A = biological target: T3, CGH-1_(248–420) F261A (C. elegans, UniProt Q95YF3 248-420, F261A)
T3 construct: Mutant of m1 made with the MutanBEST kit; source: E. coli Gold (DE3), purified (Ni-chelating resin, SEC Superdex 75)
T3 sequence (looked up): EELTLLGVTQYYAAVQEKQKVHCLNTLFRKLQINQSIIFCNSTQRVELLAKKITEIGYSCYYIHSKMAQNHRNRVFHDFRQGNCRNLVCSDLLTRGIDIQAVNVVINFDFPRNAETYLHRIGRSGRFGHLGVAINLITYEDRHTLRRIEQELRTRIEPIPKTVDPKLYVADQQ

CGH-1_(248–420) R393A = biological target: T4, CGH-1_(248–420) R393A (C. elegans, UniProt Q95YF3 248-420, R393A)
T4 construct: Mutant of m1 made with the MutanBEST kit; source: E. coli Gold (DE3), purified (Ni-chelating resin, SEC Superdex 75)
T4 sequence (looked up): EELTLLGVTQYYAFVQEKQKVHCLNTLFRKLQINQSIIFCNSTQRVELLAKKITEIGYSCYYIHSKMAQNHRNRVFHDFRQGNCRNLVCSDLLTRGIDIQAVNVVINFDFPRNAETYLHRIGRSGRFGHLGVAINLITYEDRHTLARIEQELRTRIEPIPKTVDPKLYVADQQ

B1: PATR-1 peptide (CePATR-1_(30–67)) (peptide)
peptide: SDEDHNIFDDEFDAANDETFGGGLDNIGENAELENYAT
notes: PATR-1 (Pat1 ortholog), C. elegans, residues 30-67; Printed with free NH2 and COOH ends; also called PATR1_30-67^WT; CePATR-1 peptide; source: synthetic peptide (GL Biochem, Shanghai)
Kd (CGH-1_(248–420) V262A): 4.94 ± 0.79 µM
dH (CGH-1_(248–420) V262A): -17.3 ± 0.82 kcal/mol
stoichiometry N (CGH-1_(248–420) V262A): 0.84
Kd (CGH-1_(248–420) Y386A): 4.19 ± 0.58 µM
dH (CGH-1_(248–420) Y386A): -14.2 ± 0.56 kcal/mol
stoichiometry N (CGH-1_(248–420) Y386A): 0.85
Kd (CGH-1_(248–420) F261A): 6.62 ± 1.05 µM
dH (CGH-1_(248–420) F261A): -13 ± 0.7 kcal/mol
stoichiometry N (CGH-1_(248–420) F261A): 0.76
Kd (CGH-1_(248–420) R393A): 4.22 ± 0.62 µM
dH (CGH-1_(248–420) R393A): -16.6 ± 0.69 kcal/mol
stoichiometry N (CGH-1_(248–420) R393A): 0.8
